Measurements taken from patent US20240189392A1 (AMBRX, published 2024).

Key:
Assay in all cases: cell-based or functional assay
human RXFP1 [1] = target: T1, human RXFP1 (human, UniProt Q9HBX9 1-757)
T1 sequence (looked up): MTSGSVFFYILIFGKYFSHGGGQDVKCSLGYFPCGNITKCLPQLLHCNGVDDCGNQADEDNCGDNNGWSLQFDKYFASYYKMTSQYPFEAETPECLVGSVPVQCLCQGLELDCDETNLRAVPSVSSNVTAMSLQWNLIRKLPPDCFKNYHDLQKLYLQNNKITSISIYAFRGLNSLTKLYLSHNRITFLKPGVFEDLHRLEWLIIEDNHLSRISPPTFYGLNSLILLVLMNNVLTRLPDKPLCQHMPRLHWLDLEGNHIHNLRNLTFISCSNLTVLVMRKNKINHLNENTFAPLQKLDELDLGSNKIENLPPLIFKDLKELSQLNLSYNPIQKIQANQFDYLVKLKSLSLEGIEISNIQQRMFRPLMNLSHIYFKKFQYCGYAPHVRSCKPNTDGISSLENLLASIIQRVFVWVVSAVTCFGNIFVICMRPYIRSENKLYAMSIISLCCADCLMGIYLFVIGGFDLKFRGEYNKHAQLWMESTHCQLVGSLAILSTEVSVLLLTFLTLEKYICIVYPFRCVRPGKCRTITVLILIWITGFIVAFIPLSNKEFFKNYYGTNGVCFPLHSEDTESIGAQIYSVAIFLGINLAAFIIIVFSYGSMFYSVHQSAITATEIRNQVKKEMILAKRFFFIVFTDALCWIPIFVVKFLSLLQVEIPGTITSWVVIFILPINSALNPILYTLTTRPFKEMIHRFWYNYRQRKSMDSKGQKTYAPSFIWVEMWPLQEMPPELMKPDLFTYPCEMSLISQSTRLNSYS

cynomolgus monkey RXFP1 = target: T2, cynomolgus monkey RXFP1 (cynomolgus monkey, UniProt H9ERA2 1-757 (rhesus entry))
T2 sequence: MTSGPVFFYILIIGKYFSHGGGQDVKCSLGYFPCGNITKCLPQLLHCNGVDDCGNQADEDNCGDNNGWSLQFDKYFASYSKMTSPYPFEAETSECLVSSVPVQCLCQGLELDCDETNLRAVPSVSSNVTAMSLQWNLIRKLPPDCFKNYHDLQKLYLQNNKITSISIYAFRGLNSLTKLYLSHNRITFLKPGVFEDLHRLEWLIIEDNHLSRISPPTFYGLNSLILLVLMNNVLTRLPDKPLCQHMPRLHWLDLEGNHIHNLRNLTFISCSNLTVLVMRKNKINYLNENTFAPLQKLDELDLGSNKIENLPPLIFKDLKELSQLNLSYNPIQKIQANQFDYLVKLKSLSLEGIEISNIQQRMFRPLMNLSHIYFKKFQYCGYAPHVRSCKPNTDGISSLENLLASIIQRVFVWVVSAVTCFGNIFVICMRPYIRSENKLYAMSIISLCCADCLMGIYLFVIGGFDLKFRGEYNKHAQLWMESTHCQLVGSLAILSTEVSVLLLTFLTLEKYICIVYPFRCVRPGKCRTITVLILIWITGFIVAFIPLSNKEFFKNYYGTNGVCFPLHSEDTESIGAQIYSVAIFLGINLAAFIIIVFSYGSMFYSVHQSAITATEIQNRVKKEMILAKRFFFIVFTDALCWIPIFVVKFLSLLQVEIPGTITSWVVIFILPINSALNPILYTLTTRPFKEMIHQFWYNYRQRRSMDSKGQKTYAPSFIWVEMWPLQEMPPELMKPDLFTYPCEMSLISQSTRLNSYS

mouse RXFP1 = target: T3, mouse RXFP1 (mouse, UniProt Q6R6I7 1-758)
T3 sequence (looked up): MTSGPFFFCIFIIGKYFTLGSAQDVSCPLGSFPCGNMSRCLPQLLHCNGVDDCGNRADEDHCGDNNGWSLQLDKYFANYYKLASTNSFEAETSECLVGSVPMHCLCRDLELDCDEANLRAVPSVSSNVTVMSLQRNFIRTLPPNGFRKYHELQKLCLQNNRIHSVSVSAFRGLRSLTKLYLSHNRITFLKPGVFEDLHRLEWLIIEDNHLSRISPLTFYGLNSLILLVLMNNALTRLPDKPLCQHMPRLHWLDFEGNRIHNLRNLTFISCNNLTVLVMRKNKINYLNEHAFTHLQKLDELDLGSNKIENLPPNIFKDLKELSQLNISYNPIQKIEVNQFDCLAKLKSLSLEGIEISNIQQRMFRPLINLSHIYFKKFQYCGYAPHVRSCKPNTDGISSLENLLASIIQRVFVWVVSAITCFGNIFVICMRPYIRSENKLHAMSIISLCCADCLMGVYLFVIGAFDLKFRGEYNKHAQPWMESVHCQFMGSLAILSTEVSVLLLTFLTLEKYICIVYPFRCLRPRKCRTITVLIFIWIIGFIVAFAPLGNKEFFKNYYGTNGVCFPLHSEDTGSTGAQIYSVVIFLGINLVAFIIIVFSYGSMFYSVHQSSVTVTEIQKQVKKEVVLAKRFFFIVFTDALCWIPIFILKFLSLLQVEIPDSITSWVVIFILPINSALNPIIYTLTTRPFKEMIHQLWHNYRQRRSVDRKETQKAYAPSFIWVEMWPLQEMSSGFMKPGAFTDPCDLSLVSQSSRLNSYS

human RXFP1 [2] = target: T1, human RXFP1; remark: listed apart in the source

B1: RLX-A-AQ1-20KPEG (ligand)
chain 1: XLYSALANKCCHVGCTKRSLARFC
chain 2: ASWMEEVIKLCGRELVRAQIAICGMSTWS
modifications: pACF (para-acetylphenylalanine) at position 1 of the A chain, linked to a 20 kDA PEG via an oxime linkage
- In vitro Activity Fold Loss (human RXFP1 [1]): 12 fold
- Potency Ratio (RLX-A-AQ1-20KPEG/WT-RLX), cAMP assay, cyno RXFP1/CHO-K1 cells (cynomolgus monkey RXFP1): 33 fold
- RLX-A-AQ1-20KPEG Potency Ratio (hRXFP 1-1.0), cAMP assay (cynomolgus monkey RXFP1): 1.6 ratio
- cAMP Assay EC50 (nM), cyno RXFP1/CHO-K1 cells (cynomolgus monkey RXFP1): 1.97 nM
- Potency Ratio (RLX-A-AQ1-20KPEG/WT-RLX), cAMP assay, mouse RXFP1/CHO-K1 cells (mouse RXFP1): 22 fold
- RLX-A-AQ1-20KPEG Potency Ratio (hRXFP 1-1.0), cAMP assay (mouse RXFP1): 0.66 ratio
- cAMP Assay EC50 (nM), mouse RXFP1/CHO-K1 cells (mouse RXFP1): 2.1 nM
- Functional Assay Raw EC50 Values [ng/mL]; cAMP increase in THP-1 cells, 11/5/2010 (human RXFP1 [2]): 38 ng/mL
